Test results: paper PMC4316792, “The dehydrogenase region of the NADPH oxidase component Nox2 acts as a protein disulfide isomerase (PDI) resembling PDIA3 with a role in the binding of the activator protein p67^phox” (Frontiers in Chemistry, 2015)
Entries after “also recorded” stand apart in the source; their conditions may differ. Bridges are numbered along the chain shown (N, C = ends). The star is where a group is joined. Biotin = O=C1N[C@H]2[C@H](CS[C@H]2CCCCC(=O)*)N1

What was measured:
[1] = system: PDI; details: disulfide form; ref Kersteen and Raines, [2003]; Wang et al., [2011]; cited from earlier work
Excerpt: Based on the resemblance of the CXC motif with the CXXC motif characteristic of the catalytic motifs of PDI and thioredoxin, we synthesized analogs of Nox2 peptide 24 ([…]) in which the CGC sequen ...

[2] = molecular target: NusA-Nox2(357–570) (human) (UniProt P04839); assay: SEC; FPLC gel filtration on HiLoad 16/60 Superdex 200 prep grade; separated a polymeric fraction from a homodimer fraction
[3] = system: NADPH oxidase in intact phagocytes / neutrophils; parameters: method as in 3 sources, one per row (each row's own in cited_ref): ref Cohen and Chovaniec, [1978]; Yamashita et al., [1984] ||| ref Le Cabec and Maridonneau-Parini, [1995] ||| ref Tsunawaki et al., [2004]; details: added before activation; ref Cohen and Chovaniec, [1978]; Yamashita et al., [1984]; cited from earlier work
[4] = system: NADPH oxidase; parameters: method as in 8 sources, one per row (each row's own in cited_ref): ref Shpungin et al., [1989] ||| ref Bellavite et al., [1983]; Gabig and Lefker, [1984] ||| ref Pick et al., [1987] ||| ref Le Cabec and Maridonneau-Parini, [1995] ||| ref Nishida et al., [2005] ||| ...; details: acts on a membrane component; ref Shpungin et al., [1989]; cited from earlier work
[5] = system: p67^phox(1–526); assay: Effect of thiol reagents on binding of p67phox(1–526) to Nox2 peptide 24; details: 1 h room temperature
[6] = molecular target: T1, NADPH oxidase (macrophage membrane liposomes, cytochrome b558) (Cavia porcellus, UniProt H0UXC6); assay: Cell-free NADPH oxidase activation, amphiphile- and p47phox-dependent; assay type: biochemical, guinea pig; details: for EC50: equal concentrations of p67phox, p47phox and Rac1 Q61L 10–200 nM, LiDS 120 μM, 5 nM cytochrome b558 heme, 90 s (Figure 13A), read-out: EC50, support of NADPH oxidase activation
[7] = system: Nox2 peptide 24 (357–371); assay: Peptide–protein binding assay, wild type and Cys to Ser mutant p67phox(1–212) to Nox2 peptide 24; details: 3 experiments (Figure 12); for binding to Nox2 peptide 24 in the disulfide form: 24N CGC S-S; for binding to Nox2 peptide 24 in the dithiol (reduced) form: 24N CGC
[8] = Binding of thiol reagent mBBr to p67phox(1–212); details: results not shown
[9] = system: p67^phox(1–212); assay: Protein–protein binding assay, p67phox(1–212)
[10] = molecular target: T1, NADPH oxidase (macrophage membrane liposomes, cytochrome b558); assay: Cell-free NADPH oxidase activation, amphiphile- and p47phox-independent; assay type: biochemical, guinea pig; details: equal concentrations of p67phox and prenylated Rac1 Q61L 50–600 nM, 5 nM cytochrome b558 heme, 5 min (Figure 13B), read-out: EC50, support of NADPH oxidase activation
[11] = system: p67^phox(1–526); assay: Protein–protein binding assay, p67phox(1–526); details: homodimers, 0.5 μM, p67phox coated at 0.5 μM; one characteristic experiment (Figure 5A)
[12] = system: oxidized insulin; assay: Insulin reduction (turbidimetric) assay; assay type: biochemical; details: up to 5 μM
[13] = PDI reductase activity, DE-GSSG reduction; assay type: biochemical; details: for Vmax, PDI reductase activity (Figure 6B): DTT only 5,124
[14] = molecular target: T2, p67^phox(1–526) (UniProt P19878 1-526); assay: ELISA; peptide—protein binding of p67^phox to Nox2 peptide 28, told in the results without a figure (the introduction gives manuscripts in preparation); details: both partners purified
T2 construct: construct as in Mizrahi et al., 2010; also called full-length p67^phox; 6His-p67^phox; source: E. coli, purified (Nickel Sepharose); not shown: 6His, N-terminal, kept
T2 sequence (looked up): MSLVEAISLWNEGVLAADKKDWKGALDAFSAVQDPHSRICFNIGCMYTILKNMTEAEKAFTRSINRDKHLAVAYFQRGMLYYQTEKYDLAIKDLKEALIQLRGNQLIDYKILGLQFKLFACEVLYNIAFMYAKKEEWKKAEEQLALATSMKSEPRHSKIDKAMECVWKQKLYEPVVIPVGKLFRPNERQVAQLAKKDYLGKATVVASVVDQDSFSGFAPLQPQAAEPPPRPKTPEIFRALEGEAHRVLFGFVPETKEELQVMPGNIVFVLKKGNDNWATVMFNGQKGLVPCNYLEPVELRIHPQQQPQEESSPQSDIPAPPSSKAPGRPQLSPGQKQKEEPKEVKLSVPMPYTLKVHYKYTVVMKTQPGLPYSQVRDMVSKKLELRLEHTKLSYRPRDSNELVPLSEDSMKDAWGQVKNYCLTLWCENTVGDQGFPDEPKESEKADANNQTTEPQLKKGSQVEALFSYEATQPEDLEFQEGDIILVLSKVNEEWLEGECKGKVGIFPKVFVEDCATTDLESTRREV

[15] = molecular target: T3, p67^phox(1–212) (UniProt P19878 1-212); assay: as above; details: both partners purified
T3 construct: contains four cysteines (40, 45, 121, 165); source: E. coli, purified (Nickel Sepharose); not shown: 6His, N-terminal, kept
T3 sequence (looked up): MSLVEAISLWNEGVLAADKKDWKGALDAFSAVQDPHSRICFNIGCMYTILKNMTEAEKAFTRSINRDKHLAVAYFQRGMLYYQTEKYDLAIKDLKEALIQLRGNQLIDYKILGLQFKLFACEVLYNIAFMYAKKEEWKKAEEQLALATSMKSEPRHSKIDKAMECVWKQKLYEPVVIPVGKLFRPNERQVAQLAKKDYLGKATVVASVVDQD

RKCGC (disulfide) [small peptide RKCGC]
mimicry of the actions of PDI protein [1]: can mimic the actions of PDI protein

NusA-Nox2(357–570) (from UniProt P04839 357-570) (domain or fragment)
stoichiometry N [2]: 2

CCN1C(=O)C=CC1=O [NEM, N-ethylmaleimide]
inhibition of oxidase activation in intact phagocytes [3]: inhibited
inhibition of oxidase activation in vitro [4]: inhibited
effect of pretreatment of p67phox on low affinity binding to native form of peptide 24 ([5]; NEM 0.1 mM or diamide 5 mM, three experiments (Figure 2A,B)): suppressed
effect of NEM pretreatment of p67phox on binding to peptide 24 in the disulfide form ([5]; p67^phox(1–526) 1.5 μM, NEM 0.1 mM, three experiments (Figure 2A)): totally abolished

B1: p67^phox(1–212): wild-type recombinant p67phox residues 1–212 (protein)
chain: MSLVEAISLWNEGVLAADKKDWKGALDAFSAVQDPHSRICFNIGCMYTILKNMTEAEKAFTRSINRDKHLAVAYFQRGMLYYQTEKYDLAIKDLKEALIQLRGNQLIDYKILGLQFKLFACEVLYNIAFMYAKKEEWKKAEEQLALATSMKSEPRHSKIDKAMECVWKQKLYEPVVIPVGKLFRPNERQVAQLAKKDYLGKATVVASVVDQD
modifications: left off: 6His, N-terminal, kept
EC50 [6]: 57.2 nM
binding to Nox2 peptide 24 in the disulfide form [7]: much enhanced binding
binding to Nox2 peptide 24 in the dithiol (reduced) form [7]: moderate binding
binding of mBBr [8]: bound mBBr
binding of NusA-Nox2 to p67phox(1–212) relative to p67phox(1–526) ([9]; Figure 5A,B): exceeded
EC50 [10]: 224 nM

B2: Mutant p67^phox: recombinant p67phox(1–212) in which cysteines 40, 45, 121, and 165 were mutated to serine (protein)
chain: MSLVEAISLWNEGVLAADKKDWKGALDAFSAVQDPHSRISFNIGSMYTILKNMTEAEKAFTRSINRDKHLAVAYFQRGMLYYQTEKYDLAIKDLKEALIQLRGNQLIDYKILGLQFKLFASEVLYNIAFMYAKKEEWKKAEEQLALATSMKSEPRHSKIDKAMESVWKQKLYEPVVIPVGKLFRPNERQVAQLAKKDYLGKATVVASVVDQD
modifications: left off: 6His, N-terminal, kept
notes: recombinant p67phox(1–212) in which cysteines 40, 45, 121, and 165 were mutated to serine
increase in EC50 versus wild-type [6]: two-fold
EC50 [6]: 114 nM
binding to Nox2 peptide 24 in the disulfide form ([7]; listed as mutant protein): markedly reduced
binding to Nox2 peptide 24 in the dithiol (reduced) form ([7]; listed as mutant protein): lacked binding ability; also recorded: markedly reduced
binding of mBBr [8]: did not
EC50 [10]: 405 nM

B3: NusA-Nox2(357–570): fusion protein of NusA and Nox2 residues 357–570, contains the CGC triad (protein)
chain: IVGDWTEGLFNACGCDKQEFQDAWKLPKIAVDGPFGTASEDVFSYEVVMLVGAGIGVTPFASILKSVWYKYCNNATNLKLKKIYFYWLCRDTHAFEWFADLLQLLESQMQERNNAGFLSYNIYLTGWDESQANHFAVHHDEEKDVITGLKQKTLYGRPNWDNEFKTIASQHPNTRIGVFLCGPEALAETLSKQSISNSESGPRGVHFIFNKENF
modifications: left off: NusA (E. coli), N-terminal, kept | His tag (from the purification on Nickel Sepharose), end not stated, state not stated
notes: fusion protein of NusA and Nox2 residues 357–570, contains the CGC triad
binding of NusA-Nox2 to p67phox(1–526) [11]: significant binding
binding of NusA-Nox2 to p67phox(1–212) ([9]; homodimers, 0.5 μM, p67phox coated at 0.5 μM, one characteristic experiment (Figure 5B)): significant binding
insulin reductase activity [12]: no activity could be detected
Vmax, PDI reductase activity (Figure 7A) ([13]; 1 μM, DE-GSSG 0.8 μM, DTT 12.5 μM, pH 7.0, 24°C, mean ± SEM of 9 experiments): 49,164 ± 2271
Vmax, PDI reductase activity (Figure 6B) ([13]; 1 μM, DE-GSSG 800 nM, DTT 12.5 μM, one characteristic experiment): 41,130 milli relative fluorescence units per min
PDI activity compared with DTT alone ([13]; 2 μM (Figure 6A)): marked excess
Vmax, PDI reductase activity (Figure 6B) ([13]; 2 μM, DE-GSSG 800 nM, DTT 12.5 μM, one characteristic experiment): 62,074 milli relative fluorescence units per min
Vmax, PDI reductase activity in the absence of PAO (Figure 6D) ([13]; 2 μM, DE-GSSG 800 nM, DTT 12.5 μM, one characteristic experiment, DTT only 8,254): 40,306 milli relative fluorescence units per min
Vmax, PDI reductase activity (Figure 6C) ([13]; 2 μM, DE-GSSG 800 nM, DTT 12.5 μM, one characteristic experiment, DTT only 26,248): 127,476 milli relative fluorescence units per min
Vmax, PDI reductase activity (Figure 6B) ([13]; 3 μM, DE-GSSG 800 nM, DTT 12.5 μM, one characteristic experiment): 73,736 milli relative fluorescence units per min
Vmax, PDI reductase activity (Figure 6B) ([13]; 4 μM, DE-GSSG 800 nM, DTT 12.5 μM, one characteristic experiment): 86,162 milli relative fluorescence units per min
dose dependency of reductase activity ([13]; 1–4 μM (Figure 6B)): clear dose dependency
Vmax, PDI reductase activity (Figure 6A) ([13]; NusA-Nox2(357–570) 2 μM, DE-GSSG 800 nM, DTT 12.5 μM, pH 7.0, 24°C, 30 min, DTT only 7,108 and 9,423): 52,312 ± 1,380 milli relative fluorescence units per min

B4: Nox2 peptide 28 (369–383) with an intramolecular disulfide bond linking cysteines 369 and 371 (peptide)
peptide: Biotin-SGSGCGCDKQEFQDAWKLP-NH2
modifications: disulfide 5-7
SMILES: CC(C)C[C@H](NC(=O)[C@H](CCCCN)NC(=O)[C@H](Cc1c[nH]c2ccccc12)NC(=O)[C@H](C)NC(=O)[C@H](CC(=O)O)NC(=O)[C@H](CCC(N)=O)NC(=O)[C@H](Cc1ccccc1)NC(=O)[C@H](CCC(=O)O)NC(=O)[C@H](CCC(N)=O)NC(=O)[C@H](CCCCN)NC(=O)[C@H](CC(=O)O)NC(=O)[C@@H]1CSSC[C@H](NC(=O)CNC(=O)[C@H](CO)NC(=O)CNC(=O)[C@H](CO)NC(=O)CCCC[C@@H]2SC[C@@H]3NC(=O)N[C@@H]32)C(=O)NCC(=O)N1)C(=O)N1CCC[C@H]1C(N)=O
notes: spacer between the N-terminal biotin and the peptide, printed as Ser-Gly-Ser-Gly; also called peptide 28, disulfide form; source: synthetic peptide (Mimotopes or Bachem); not shown: biotin, N-terminal, kept
binding result [14]: binds
binding result [15]: binds
